Key:
[1] = biological target: HLA-DRB5 (DRB5*0101) (human); experiment: competition binding
[2] = biological target: HLA-DR15 (DRB1*1501) (human); experiment: competition binding
[3] = biological target: HLA-DR7 (DRB1*0701) (human); experiment: competition binding
[4] = biological target: HLA-DR3 (DRB1*0301) (human); experiment: competition binding
[5] = biological target: HLA-DRB3 (DRB3*0101) (human); experiment: competition binding
[6] = biological target: HLA-DR4 (DRB1*0401) (human); experiment: competition binding
[7] = biological target: HLA-DRB4 (DRB4*0101) (human); experiment: competition binding
[8] = biological target: HLA-DR11 (DRB1*1101) (human); experiment: competition binding
[9] = biological target: HLA-DR1 (DRB1*0101) (human); experiment: competition ELISA, purified HLA II; tracer biotinylated HA 306-318

| Substance | IC50 [1] | IC50 [2] | IC50 [3] | IC50 [4] | IC50 [5] | IC50 [6] | IC50 [7] | IC50 [8] | IC50 [9] |
| --- | --- | --- | --- | --- | --- | --- | --- | --- | --- |
| 9N 1036-1055 (from UniProt P26664 1036-1055) | 0.01 µM | 10 µM | 1.25 µM | 6 µM | 35 µM | 0.06 µM | 0.15 µM | 0.163 µM |  |
| 28N 1524-1553 (peptide; other documents disagree on this pair) |  |  |  |  |  |  |  |  | 0.002 µM |

Reference: patent US20060110401A1, “Mixture of peptides from c and ns3 proteins of the hepatitis c virus and applications thereof” (priority 2002, published 2006)
